The values that follow come from paper PMC5371411.

pKd: −log10 of the molar value.

This assay concerns the target His-EspC (enteropathogenic Escherichia coli (EPEC)) (UniProt Q9EZE7). Kind of assay: SPR; His-EspC coupled by its His tag and EDC-NHS on a nickel-nitrilotriacetic acid sensor slide; His-EspA or His-EspA/His-EspD perfused in PBST at 50 µl/min; Reichert SR7500DC. A general note: SPR reads the build-up and loss of mass on a sensor chip optically.

For orientation: pKd means the negative decadic logarithm of the Kd, by convention in mol/L. A high value points to a small Kd.

Turning to “His-EspA/His-EspD complex (from UniProt Q47184 1-192)”, the pKd was 7.61.
